± gives the standard deviation.

The data set is described as follows: collision cross section of modified peptide (TIMS, N2, iRT-aligned); higher = larger / more extended gas-phase ion. Summed up: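 Collision cross section was derived from the Mason-Schamp equation. Each value averages 1–3 technical replicates of the most abundant feature per charge state, measured on a timsTOF Pro/HT in dda-PASEF mode (nitrogen, ~2.4 mbar) after a 120-min nanoflow C18 gradient at 60 °C. Synthetic peptide pools (~100 fmol/µL in 2% acetonitrile/0.1% formic acid, iRT standard spiked 1:40) were identified with MaxQuant, and 1/K0 was calibrated with three reference ions and aligned run-wise to the median iRT peptide deviation.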

Setting [1] is: charge state: 2, modification: Glutarylation.
Where [2] appears, read: charge state: 2, modification: GlyGly (K).
[3] abbreviates: charge state: 3, modification: GlyGly (K).
The mark [4] stands for this setting: charge state: 2, modification: Malonyl.
Setting [5] is: charge state: 2, modification: Methyl (K).
Setting [6] is: charge state: 2, modification: Propionyl.
[7] abbreviates: charge state: 2, modification: Succinyl.
[8] abbreviates: charge state: 2, modification: Trimethyl (K).
The mark [9] stands for this setting: charge state: 2, modification: hydroxyisobutyryl.
The mark [10] stands for this setting: charge state: 2, modification: Acetyl (K).
The mark [11] stands for this setting: charge state: 2, modification: Biotin.
[12] abbreviates: charge state: 2, modification: Butyryl.
The mark [13] stands for this setting: charge state: 3, modification: Butyryl.
[14] abbreviates: charge state: 2, modification: Crotonyl.
[15] abbreviates: charge state: 3, modification: Crotonyl.
Where [16] appears, read: charge state: 2, modification: Dimethyl (K).
[17] abbreviates: charge state: 3, modification: Dimethyl (K).
Where [18] appears, read: charge state: 2, modification: Formyl.
The mark [19] stands for this setting: charge state: 3, modification: Glutarylation.
Where [20] appears, read: charge state: 3, modification: Methyl (K).
Where [21] appears, read: charge state: 3, modification: Succinyl.
The mark [22] stands for this setting: charge state: 3, modification: Trimethyl (K).
Setting [23] is: charge state: 3, modification: HexNAc (ST).

“ILDLKTGTVK [_ILDLK(Gluratylation)TGTVK_]” gave a collision cross section under setting [1] of 368.56 ± 0.72 Å².

Consider ILDLKTGTVK [_ILDLK(GlyGly (K))TGTVK_], for which the collision cross section worked out at 373.1 ± 0.25 Å² under setting [2] and 439.15 ± 0.43 Å² under setting [3].

On to ILDLKTGTVK [_ILDLK(Malonyl)TGTVK_], for which the collision cross section under setting [4] is recorded as 359.66 ± 0.75 Å².

For the sequence ILDLKTGTVK [_ILDLK(Methyl (K))TGTVK_], under setting [5], the collision cross section amounted to 356.44 ± 1 Å².

ILDLKTGTVK [_ILDLK(Propionyl)TGTVK_] gave a collision cross section under setting [6] of 359.51 ± 0.33 Å².

In the case of ILDLKTGTVK [_ILDLK(Succinyl)TGTVK_], the collision cross section under setting [7] was determined as 362.99 ± 0.74 Å².

Under setting [8], “ILDLKTGTVK [_ILDLK(Trimethyl (K))TGTVK_]” gave a collision cross section of 360.39 ± 1.1 Å².

“ILDLKTGTVK [_ILDLK(hydroxyisobutyryl)TGTVK_]” gave a collision cross section under setting [9] of 366.99 ± 1.3 Å².

“INNFSADIKDSK [_INNFSADIK(Acetyl (K))DSK_]”: the collision cross section under setting [10] came to 398.34 ± 0.77 Å².

For INNFSADIKDSK [_INNFSADIK(Biotin)DSK_], the collision cross section under setting [11] is 419.19 Å².

For INNFSADIKDSK [_INNFSADIK(Butyryl)DSK_], the collision cross section runs as follows: under setting [12], 405.78 ± 0.75 Å²; under setting [13], 461.68 ± 3.2 Å².

Consider INNFSADIKDSK [_INNFSADIK(Crotonyl)DSK_], for which the collision cross section under setting [14] was 405.9 ± 0.28 Å² and the collision cross section under setting [15] was found to be 458.84 ± 1.6 Å².

Sequence “INNFSADIKDSK [_INNFSADIK(Dimethyl (K))DSK_]” returned a collision cross section under setting [16] of 406.51 ± 0.23 Å² and a collision cross section under setting [17] of 455.06 ± 5.9 Å².

On to INNFSADIKDSK [_INNFSADIK(Formyl)DSK_], for which the collision cross section under setting [18] amounted to 395.4 ± 0.83 Å².

As for “INNFSADIKDSK [_INNFSADIK(Gluratylation)DSK_]”, the collision cross section was 404.4 ± 4.7 Å² under setting [1] and 469.07 Å² under setting [19].

In the case of “INNFSADIKDSK [_INNFSADIK(GlyGly (K))DSK_]”, the collision cross section worked out at 406.34 ± 0.36 Å² under setting [2] and 465 ± 2.2 Å² under setting [3].

Turning to INNFSADIKDSK [_INNFSADIK(Malonyl)DSK_], under setting [4], the collision cross section amounted to 398.58 ± 0.027 Å².

As to “INNFSADIKDSK [_INNFSADIK(Methyl (K))DSK_]”, the collision cross section was found to be 401.35 ± 2.2 Å² under setting [5] and 451.47 ± 4.8 Å² under setting [20].

For “INNFSADIKDSK [_INNFSADIK(Propionyl)DSK_]”, the collision cross section under setting [6] is reported as 401.7 ± 0.42 Å².

Take INNFSADIKDSK [_INNFSADIK(Succinyl)DSK_]: the collision cross section is, setting by setting: under setting [7], 402.07 ± 0.25 Å²; under setting [21], 465.51 Å².

With “INNFSADIKDSK [_INNFSADIK(Trimethyl (K))DSK_]”, the collision cross section worked out at 411.01 ± 0.61 Å² under setting [8] and 459.74 ± 1.8 Å² under setting [22].

For the sequence “INNFSADIKDSK [_INNFSADIK(hydroxyisobutyryl)DSK_]”, the collision cross section was 408.19 ± 0.53 Å² under setting [9] and 466.44 ± 1.1 Å² (charge state: 3, modification: hydroxyisobutyryl).

For “IPAASAAAMNLASAR [_IPAAS(HexNAc (ST))AAAMNLASAR_]”, the collision cross section under setting [23] was found to be 504.78 ± 1.3 Å².

Regarding “IPAASAAAMNLASAR [_IPAASAAAMNLAS(HexNAc (ST))AR_]”, the collision cross section (charge state: 2, modification: HexNAc (ST)) is given as 422.38 ± 0.62 Å².

IPPTYQIR [_IPPTY(Nitro (Y))QIR_] yielded a collision cross section (charge state: 2, modification: Nitro (Y)) of 343.35 ± 0.72 Å².

IPPTYQIR [_IPPTY(Phospho (Y))QIR_] gave a collision cross section (charge state: 2, modification: Phospho (Y)) of 350.25 ± 0.066 Å².

Consider “IPQEKCILQTDVK [_IPQEK(Acetyl (K))CILQTDVK_]”, for which, under setting [10], the collision cross section amounted to 431.12 ± 1.2 Å².

Consider “IPQEKCILQTDVK [_IPQEK(Butyryl)CILQTDVK_]”, for which the collision cross section runs as follows: under setting [12], 436.84 ± 0.53 Å²; under setting [13], 487.47 ± 3.3 Å².

On to “IPQEKCILQTDVK [_IPQEK(Crotonyl)CILQTDVK_]”, for which the collision cross section under setting [14] amounted to 433.54 Å².

Under setting [18], IPQEKCILQTDVK [_IPQEK(Formyl)CILQTDVK_] yielded a collision cross section of 427.41 Å².

Turning to “IPQEKCILQTDVK [_IPQEK(Gluratylation)CILQTDVK_]”, the collision cross section under setting [1] is 437.23 ± 0.96 Å².

Sequence “IPQEKCILQTDVK [_IPQEK(GlyGly (K))CILQTDVK_]” showed a collision cross section under setting [2] of 446.01 ± 0.95 Å² and a collision cross section under setting [3] of 482.94 ± 1.1 Å².

“IPQEKCILQTDVK [_IPQEK(Malonyl)CILQTDVK_]” registered a collision cross section under setting [4] of 431.57 Å².

For the sequence “IPQEKCILQTDVK [_IPQEK(Methyl (K))CILQTDVK_]”, the collision cross section came out at 433.64 ± 1.1 Å² under setting [5] and 464.28 ± 2.7 Å² under setting [20].

Sequence “IPQEKCILQTDVK [_IPQEK(Succinyl)CILQTDVK_]” showed a collision cross section under setting [7] of 432.46 ± 0.51 Å².

For “IPQEKCILQTDVK [_IPQEK(hydroxyisobutyryl)CILQTDVK_]”, under setting [9], the collision cross section is 438.91 ± 0.79 Å².

Where the note is “charge state: 3, modification: Citrullination (R)”, “IQNGAQGIRFIYTR [_IQNGAQGIR(Citrullination (R))FIYTR_]” had a collision cross section of 506.23 Å².

IQQELQTAKK [_IQQELQTAK(Acetyl (K))K_]: the collision cross section reads like this: under setting [10], 374.24 ± 0.38 Å²; (charge state: 3, modification: Acetyl (K)) 435.9 ± 0.91 Å².

For IQQELQTAKK [_IQQELQTAK(Biotin)K_], the collision cross section is listed as 397.29 ± 2.2 Å² under setting [11] and 468.38 ± 0.34 Å² (charge state: 3, modification: Biotin).

Regarding IQQELQTAKK [_IQQELQTAK(Butyryl)K_], the collision cross section came out at 385.32 ± 2.2 Å² under setting [12] and 441.3 Å² under setting [13].

With IQQELQTAKK [_IQQELQTAK(Crotonyl)K_], the collision cross section reads like this: under setting [14], 386.16 ± 0.79 Å²; under setting [15], 431.2 ± 1.6 Å².

Sequence IQQELQTAKK [_IQQELQTAK(Dimethyl (K))K_] gave a collision cross section under setting [16] of 374.44 ± 1.1 Å² and a collision cross section under setting [17] of 426.86 ± 2.1 Å².

As for IQQELQTAKK [_IQQELQTAK(Formyl)K_], the collision cross section under setting [18] worked out at 369.08 ± 0.89 Å².

On to “IQQELQTAKK [_IQQELQTAK(Gluratylation)K_]”, for which the collision cross section runs as follows: under setting [1], 388.2 ± 0.52 Å²; under setting [19], 444.75 Å².

Regarding IQQELQTAKK [_IQQELQTAK(GlyGly (K))K_], the collision cross section runs as follows: under setting [2], 381.49 ± 0.89 Å²; under setting [3], 434.95 ± 2 Å².

For the sequence IQQELQTAKK [_IQQELQTAK(Malonyl)K_], the collision cross section under setting [4] worked out at 373.35 ± 6 Å².

IQQELQTAKK [_IQQELQTAK(Methyl (K))K_]: the collision cross section is given as 376.86 ± 3.5 Å² under setting [5] and 430.18 ± 6.1 Å² under setting [20].

On to IQQELQTAKK [_IQQELQTAK(Propionyl)K_], for which, under setting [6], the collision cross section is 379.28 ± 0.65 Å².

For IQQELQTAKK [_IQQELQTAK(Succinyl)K_], the collision cross section runs as follows: under setting [7], 376.48 ± 0.24 Å²; under setting [21], 438.22 Å².

Turning to “IQQELQTAKK [_IQQELQTAK(Trimethyl (K))K_]”, the collision cross section is, setting by setting: under setting [8], 374.97 ± 0.61 Å²; under setting [22], 436.54 ± 2.4 Å².

Under setting [9], “IQQELQTAKK [_IQQELQTAK(hydroxyisobutyryl)K_]” registered a collision cross section of 386.63 ± 0.81 Å².

As to IQTKAGEATVK [_IQTK(Acetyl (K))AGEATVK_], the collision cross section under setting [10] worked out at 364.34 ± 0.62 Å².

In the case of IQTKAGEATVK [_IQTK(Butyryl)AGEATVK_], the collision cross section under setting [12] is 371.66 ± 1.8 Å².

In the case of IQTKAGEATVK [_IQTK(Crotonyl)AGEATVK_], the collision cross section under setting [14] is 371.41 ± 0.56 Å².

Sequence “IQTKAGEATVK [_IQTK(Dimethyl (K))AGEATVK_]” displayed a collision cross section under setting [16] of 367.67 ± 0.82 Å².

IQTKAGEATVK [_IQTK(Formyl)AGEATVK_]: under setting [18], the collision cross section is recorded as 359.75 ± 0.38 Å².

In turn, “IQTKAGEATVK [_IQTK(Gluratylation)AGEATVK_]” had a collision cross section under setting [1] of 370.55 ± 0.62 Å².

Turning to IQTKAGEATVK [_IQTK(GlyGly (K))AGEATVK_], the collision cross section is on record as 373.63 ± 0.56 Å² under setting [2] and 455.83 Å² under setting [3].

Under setting [4], IQTKAGEATVK [_IQTK(Malonyl)AGEATVK_] showed a collision cross section of 364.75 ± 0.62 Å².

For IQTKAGEATVK [_IQTK(Methyl (K))AGEATVK_], the collision cross section under setting [5] is 367.02 ± 0.38 Å².

On to IQTKAGEATVK [_IQTK(Propionyl)AGEATVK_], for which, under setting [6], the collision cross section is reported as 369.17 ± 0.33 Å².

Sequence IQTKAGEATVK [_IQTK(Succinyl)AGEATVK_] registered a collision cross section under setting [7] of 366.8 ± 0.24 Å².

“IQTKAGEATVK [_IQTK(Trimethyl (K))AGEATVK_]”: the collision cross section is, setting by setting: under setting [8], 376.56 ± 1.1 Å²; under setting [22], 436.23 Å².

Under setting [9], “IQTKAGEATVK [_IQTK(hydroxyisobutyryl)AGEATVK_]” showed a collision cross section of 374.42 ± 0.28 Å².

“IQTVPASHLQQGTASGSSK [_IQTVPASHLQQGTAS(HexNAc (ST))GSSK_]” showed a collision cross section under setting [23] of 510.18 ± 0.18 Å².

Values taken from the supplement of paper PMC10598134.
